# Measurements: patent publication US20180147231A1, “METHOD FOR TREATMENT AND PROGNOSIS OF COLORECTAL CANCER” (Oxford University Innovation Limited, priority 2015, published 2018)
# Assays:
# [1] = tested on: DLD-1 KRAS WT cells (mutant KRAS allele knocked out); experiment: Phosflow analysis of intracellular signaling, DLD-1 KRAS WT; format: cell-based; conditions: 30 min 10 ng/mL recombinant human IL-22
# Description: (§1) Therefore this isogenic pair differs only in KRAS mutation status and allows a clean system for comparison of KRAS-dependent IL-22 effects without inter-cell line mutational heterogeneity. (A) Representative FACS plots of IL-22RA1 expression and quantification of mean fluorescence intensity (WI) showing similar IL-22RA1 expression in the isogenic pair (4 experimental replicates). […] MTT was added 2 h prior to end of 48 h incubation. Formazan particles were dissolved in DMSO and absorbance was measured at 540 nm. Raw absorbances are blank corrected, normalized to a no treatment, and represented as a % viability compared to the no treatment condition. n=5 independent experiments with 3 experimental replicates. p values computed by non-parametric Mann-Whitney test comparing 5 FU alone to IL-22 pretreatment with 5 FU for each DLD-1 line.
# (§2) Adherent Colo205, T84, SW480, and DLD-1 cells were dissociated using StemPro® Accutase® (Life Technologies), filtered through […] filters, and counted by Trypan Blue exclusion. 5×10^5 cells of each line were stained with 5 μL Human IL-22 R alpha 1 Phycoerythrin MAb (Clone 305405) (R&D Systems) or […] isotype rat anti-mouse IgG1 PE (BD Biosciences) and incubated for 30 minutes at room temperature. Cells were washed with PBS, 0.1% BSA, 2 mM EDTA and acquired on the BD LSRII. Analysis was performed using FlowJo (Tree Star) software. […]
# [2] = tested on: DLD-1 KRAS MUT cells (heterozygous KRAS G13D); experiment: Phosflow analysis of intracellular signaling, DLD-1 KRAS MUT; format: cell-based; conditions: 30 min 10 ng/mL recombinant human IL-22
# Description: as §1
# as §2, with “software. For analysis of intracellular signaling pathways by phosflow, DLD-1 isogenic cells were plated in 6 well plates (1.5 million cells/well) in serum free RPMI and allowed to adhere overnight. DLD-1 cells were then stimulated or not for 30 minutes with increasing doses of recombinant human IL-22 (0.001 ng/mL-100 ng/mL). Cells were dissociated with TrypLE, fixed for 10 min at 37° C. with BD Cytofix Fixation Buffer. Cells were then permeabilized in BD Phosflow Perm Buffer III for 30 min on ice.” for “software.”
# [3] = tested on: T84 CRC cells (KRAS-mutant, IL22RA1 high); experiment: Primary sphere forming assay, T84 cells; format: cell-based, human; conditions: 10 ng/mL IL-22 pre-treatment 48 h, spheres cultured 6 days
# Description: (A) Schematic representation of primary sphere forming assay workflow. Cells were pre-treated with 10 ng/mL IL-22 for 48 hours, filtered to single cells and 1000 cells/well were seeded into 96 well low-binding plates in serum-free media containing 1% methylcellulose, 20 ng/mL EGF, 20 ng/mL bFGF with and without 10 ng/mL IL-22. Four experimental replicates were seeded for each condition. Cultured spheres from (B) Colo205, T84 and SW480 cell lines for 6 days. (C) Bright field microscopy images (4×) of single wells 6 days after seeding (1 experiment representative of 4). (D) MTT assay to assess viability of spheres 6 days after seeding (n=3). (E) Bright field microscopy of T84 spheres (20×) 6 days after seeding. (F) Quantification of spheres after 6 days of culture using ImageJ. Data represent mean+/−SD of 3 independent experiments, each with 3 technical replicates per condition. *p<0.05, one-way ANOVA with Dunnett's post test for multiple comparisons.
# Colo205, T84, and SW480 cells were pretreated for 48 h in 48 well plates with 10 ng/mL IL-22 (R&D Systems). Cells were filtered to single cells using […] filter and 1000 cells/well were seeded into 96 well low binding plates (Corning) in 1% methylcellulose in IMDM (R&D Systems), 20 ng/mL recombinant EGF (Sigma), 20 ng/mL recombinant basic FGF (Peprotech), lx insulin-transferrin selenite (ITS) (Sigma) in serum-free DMEM. […]
molecule,measurement,setting,value
"IL-22: recombinant human IL-22 (R&D Systems), IL-10 superfamily cytokine; human sequence SEQ ID NO: 5 (protein, listed as Homo sapiens) MAALQKSVSSFLMGTLATSCLLLLALLVQGGAAAPISSHCRLDKSNFQQPYITNRTFMLAKEASLADNNTDVRLIGEKLFHGVSMSERCYLMKQVLNFTLEEVLFPQSDRFQPYMQEVVPFLARLSNRLSTCHIEGDDLHIQRNVQKLKDTVKKLGESGEIKAIGELDLLFMSLRNACI",Phosphorylated ERK1/2,[1],not IL-22 inducible
same,Phosphorylated STAT3,[1],identical extent of phosphorylated STAT3
same,Phosphorylated ERK1/2,[2],not IL-22 inducible
same,Phosphorylated S6,[2],IL-22 inducible phosphorylated S6
same,Phosphorylated STAT3,[2],identical extent of phosphorylated STAT3
same,Clonogenic outgrowth (sphere formation),[3],enhances clonogenic outgrowth
